Measured values reported in the supplement of paper PMC9170038.

System: K4 kissing-loop RNA reporter
Assay: apparent KD of K4 kissing-loop reporter; higher = weaker reporter binding
Conditions: Eterna round: R107
Method: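 RNA-MaP round R107: designed RNA switches with theophylline, tryptophan, arginine or FMN aptamers are transcribed on-chip within common flanks. They are titrated with a labelled K4 kissing-loop RNA reporter in RNA-MaP buffer (100 mM Tris pH 7.5, 80 mM KCl, 4 mM MgCl2), without ligand or with the indicated ligand. Median apparent KD per design.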

[1] = input ligand: theophylline 20 uM
[2] = input ligand: tryptophan 2.4 mM
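Note: bound reporter read as fluorescence of individual clusters on recovered sequencing chips by microscopy, with normalized cluster intensities fitted with a binding model.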

Row | Sequence | apparent KD of K4 kissing-loop reporter (input ligand: FMN 200 uM) [nM] | apparent KD of K4 kissing-loop reporter (input ligand: arginine 13.2 mM) [nM] | apparent KD of K4 kissing-loop reporter (input ligand: none) [nM] | apparent KD of K4 kissing-loop reporter [1] [nM] | apparent KD of K4 kissing-loop reporter [2] [nM]
1 | AAAAUAGAUCAGUGAUGUUGGUGUCUGGAUACCAGCGAUAAUAGUCGCCCUUGGCAGCCAUGGACGUACAAAAUAAGUACGUCCU [MatMod 20 - Jieux - Same State - Theophylline A] | 487 | 239 | 369 | 285 | 347
2 | AAACAUCACUGGGAGUGAUGUUCUCAGUGACGAGGACCGGUACGGCCGCCACUCGCGAGAGAUAUAAAUAAGUAAUGACAUCAUU [Excl Tryptophan A V1] | 359 | 334 | 360 | 357 | 423
3 | AAAGUUGCAAGUGAUACCAGACGAGUGAAGGGAAGUAAUUAAUUAGGAGUGAUGUUCCGCGUCCCUUGGCAGCACUUUGUAAUUU [Exclusion Theophylline B GF 25] | 155 | 165 | 152 | 184 | 115
4 | AAAUAAAUCGGAGGAUAUCCUUCCCACGUCGAAGUACCGUGCUUGAUGGAGUGAUGUUCGAUCAGAGGAGAAGGCCGAUAAAUAA [Same State FMN B GF20] | 1040 | 732 | 1040 | 924 | 777
5 | AAAUAAUAAAUGCAGCCAGUGAUGUUGGAAGGAGCGUGCGAAAGCACAGGUAGGUCGCCAACCAAAGCUGGAAACAGCAACUGCA [#SwitchBubble 3 #K4Early] | 226 | 129 | 84.5 | 129 | 99.1
6 | AAAUACAUUUUAUUAUAUAACUUUUCAGAAGGAGCGUGGAAGUUCACAGGUAGGUCGCUGAAUAUUGGACUAGUGAUGUUAGUUA [JR_Nu_SSArginiA_Sub021] | 222 | 217 | 253 | 225 | 179
7 | AAAUAGAUCAGUCACCCAGUGAUGUUGGAAGGAGCGUGCGAAAGCACAGGUAGGUCGCCAAAACCUAAGUGGCUGAUCAAAAUAA [#SwitchBubble 4 #K4Early] | 838 | 445 | 819 | 523 | 587
8 | AAAUAGAUCAGUCAUCCAGUGAUGUUGGAAGGAGCGUGCGAAAGCACAGGUAGGUCGCCAAAAUAAAAGUGGCUGAUCAAAAUAA | 629 | 374 | 302 | 594 | 302
9 | AAAUAUUCGAGUGAUGUUCGAUAAAUUUCAGAGGAUAUGCUUAAAAGCAGAAGGCUGUAUUUCUAUUUGUUAUGAAAUUUUAUAA [JR_ExcFMNA_Sub003] | 103 | 113 | 87.3 | 109 | 73.3
10 | AAAUUCUUUUUUUUAUUUAACUUUUCAGAAGGAGCGUGGUAGUACACAGGUAGGUCGCUGAAUAUAAGACUAGUGAUGUUAGUUA [JR_SSArginiA_Sub009] | 172 | 190 | 235 | 215 | 165
11 | AAAUUUAAUAUAUUUAAUUAAUUAAGUGAUACCAGACAUUAAUAAGUCCCUUGGCAGCGCAAUGCAGUGAUGUUGCUUAUAAUAA [#18 K4 Theophylline A Same State] | 56.1 | 82.9 | 50.1 | 136 | 48
12 | AAAUUUAAUAUAUUUAAUUAAUUAUGUGAUACCAGACAUUAAUAAGUCCCUUGGCAGCACAAUGCAGUGAUGUUGCUUAUAAUAA [JR_SSTheophyA_Sub010] | 85.7 | 117 | 86.9 | 138 | 70.3
13 | AACCACUCGUUACAUCACUAUCGAGUGGAACGAGGACCGGUACGGCCGCCACUCGAAUAGAUGCAGUGAUGUUGCAUCUUGGAAU [KL-SSTryp-A (BrourdMod)4 #dotplot2 strengthened] | 181 | 141 | 163 | 156 | 132
14 | AACCACUCGUUACAUCACUAUCGAGUGGAACGAGGACCGGUACGGCCGCCACUCGAUAACUUGCAGUGAUGUUGCAAGUAAGAAU [(T)''-(K)'-(T)'-(T1)-(T2)-(K1)-(K2)_Design9] | 542 | 343 | 472 | 381 | 289
15 | AACCACUCGUUACAUCACUAUCGAGUGGAACGAGGACCGGUACGGCCGCCACUCGGUAUCUUGCAGUGAUGUUGCAAGAAAGAAU [KL-SSTryp-A #dotplot2 strengthened] | 212 | 199 | 256 | 164 | 163
16 | AACUCUCACUGGAGUGAUGUUCUGGAAAACCGAGGACCGGUACGGCCGCCACUCGGAAAUGAGAGAGUCCUACGAAAAGUAGGAC [Omei inspired 1] | 191 | 213 | 217 | 255 | 139
17 | AACUGUCAAGGACAACAUUACUGAGGUGAUACCAGCAUCGAAAGAUGCCCUUGGCAGCGCCAACUUGCAGUGAUGUUGCAAGUAA [BrourdMod 1 - Jieux - Exclusion - Theophylline A] | 169 | 141 | 157 | 159 | 164
18 | AACUUAAUUUAUAAGCAGUGAUGUUGCUCACGAGGACCGGUACGGCCGCCACUCGAUCGGACUUAGGUCUUCAAUUAUUUCUUAA [JR_ExcTryptoA_Sub018] | 114 | 157 | 137 | 140 | 121
19 | AAGAAGAAUGGAAGGAGCGAGCAGAUAUAACCAGUGAUGUUGGAAAGCCUUAUUGCUUAAGCUCAGGUAGGUCGCCAAGAAAAGA [whbob_Ex_Arginine_B_2t151] | 162 | 153 | 172 | 193 | 212
20 | AAGACUUGCAUCGAUACCAGCCCAGUGAUGUUGGGCUGCUCUCCAUGGGUGCCAGACACGGGCCCUUGGCAGCGAGGUAAGGCCC [Soveri] | 129 | 110 | 113 | 109 | 106
21 | AAGAGGUAGGCGGCCGCCACUUGUUGUGAACACAUACGAGCCAGUGAUGUUGGUAUUGUGUGCGGAAGGACCGGGCCUACCUGAA [Exclusion - Tryptophan B (Freestyle 21)] | 146 | 173 | 136 | 46 | 140

Row | Sequence | apparent KD of K4 kissing-loop reporter (input ligand: FMN 200 uM) [nM] | apparent KD of K4 kissing-loop reporter (input ligand: arginine 13.2 mM) [nM] | apparent KD of K4 kissing-loop reporter (input ligand: none) [nM] | apparent KD of K4 kissing-loop reporter [1] [nM] | apparent KD of K4 kissing-loop reporter [2] [nM]
22 | AAGCAGUCACUCGACGCCAUCGAAGAUGGGCGAGGACCGGUACGGCCGCCACUCGGAGUGAUGUUCUGAAGACUGCAAAAUAAAA [MatMod 7 - Jieux - Exclusion - Tryptophan A] | 235 | 166 | 153 | 115 | 160
23 | AAGCAGUCCCUCGAAGCCAUCGAAGAUGGGCGAGGACCGGUACGGCCGCCACUCGGAGUGAUGUUCCGAAGACUGCAAAAUAAAA [MatMod 3 - Jieux - Exclusion - Tryptophan A] | 367 | 316 | 192 | 273 | 185
24 | AAGCGUAAAAUGGCGGACAUACUGCUCCCACGAGGACCGGUACGGCCGCCACUCGAAUGCGGCAGUGAUGUUGCCGCCUUCGCGU [Zauslereed] | 74 | 68.3 | 62.8 | 69.9 | 62.5
25 | AAGCGUGUGGCGGCCGCCACUAGUCUCCAGUGAUGUUGGAGAUAUCACGUAAGUGAUAUCCGACAUAGGACCGGGCCAUAUGGAA [Same State - Tryptophan B (Freestyle 22)] | 587 | 299 | 813 | 612 | 207
26 | AAGGGCUAGGCGGCCGCCACUGGUCGUGUACACAUACAAACCAGUGAUGUUGGUAUUGUAUGCGACAGGACCGGGCCUAGCCGAA [Exclusion - Tryptophan B (Freestyle 28)] | 280 | 229 | 323 | 258 | 481
27 | AAGGGCUAGGCGGCCGCCACUGGUCGUGUACACAUACAGACCAGUGAUGUUGGUAUUGUAUGCGACAGGACCGGGCCUAGCCCAA [Exclusion - Tryptophan B (Freestyle 29)] | 267 | 230 | 263 | 247 | 445
28 | AAGGGCUAGGCGGCCGCCACUGGUCGUGUACACAUACGAACCAGUGAUGUUGGUAUUGUAUGCGACAGGACCGGGCCUAGCCGAA [Exclusion - Tryptophan B (Freestyle 27)] | 313 | 194 | 249 | 364 | 291
29 | AAGGUGAUCCUCGAUACCAGCUCAAAAUGAGUGAUGUUCAUGAAAGCCUGGAAACAGGCGAGCCCUUGGCAGCGAGUUACAUCAA [KL-SSTheoB8] | 204 | 162 | 162 | 134 | 154
30 | AAGUAGUCCCUUGUUGUCAUCGAAGAUGAACGAGGACCGGUACGGCCGCCACUCGGAGUGAUGUUCCGAUGGCUGCAAAAUAAAA [MatMod 22 - Jieux - Exclusion - Tryptophan A] | 103 | 88.9 | 92 | 91.4 | 101
31 | AAGUCAUAGGCAGGAUAUGCAUAGUAAUAAGGCAAUAUCUACGUAUAGAGUGAUGUUUUGUACCAGGCAGAAGGGCUACAUCAGU [FMN B Excl V9 (+4A/C)] | 635 | 407 | 514 | 554 | 424
32 | AAGUCAUAGGCAGGAUAUGCUUAGUAAUAAGGCCAUAUAUACGUAUAGAGUGAUGUUUUGUACCAGGCAGAAGGGCUACAUCAGU [FMN B Excl V8 (+2A)] | 541 | 276 | 373 | 532 | 544
33 | AAGUCAUAUAGAAGGAGCGUGUUUUAUAAUUUAUUUUCAUGAUCGAGUGAUGUUCGAUAUACACAGGUAGGUCGCUGUAUAAUAA [hbob_SS_Arginine_B_2t140] | 114 | 144 | 129 | 133 | 101
34 | AAGUGAUGUUGUAGUGAUGUUGUGAUGUUGCAGGAUAUAUAGUGAUGUAGAAGGGUAAGGACUGUUUUUUUUUUUGAGUGAUGUU [ookooyzrmullin] | 94.2 | 41.4 | 70.5 | 56.8 | 73.3
35 | AAGUGAUGUUGUAGUGAUGUUGUGAUGUUGCAGGAUAUAUAGUGAUGUAGAAGGGUAUGUACUUAUUUUUUAUUUGAGUUAUGUU [mmvmmullin] | 72.1 | 29.8 | 56.1 | 43.9 | 57.2
36 | AAGUGAUGUUGUAGUGAUGUUGUGAUGUUGCAGGAUAUAUAGUGAUGUAGAAGGGUAUGUGCAGUGUUGUUGUUUGAGUGUUCAU [dttyumullin] | 95.4 | 41.8 | 73.7 | 74.7 | 68.4
37 | AAGUGAUGUUGUAGUGAUGUUGUGAUGUUGCAGGAUAUAUAGUGAUGUAGAAGGGUAUGUGCAGUGUUGUUGUUUGAGUGUUGAU [twwumullin] | 90.3 | 43.2 | 74.7 | 68.6 | 68.7
38 | AAGUGAUGUUGUAGUGAUGUUGUGAUGUUGCAGGAUAUAUAGUGAUGUAGAAGGGUAUGUGCAGUUUUCUUAUUUGAGUGUUGAU [zwzamullin] | 75.9 | 33.2 | 62.6 | 49.5 | 61.3
39 | AAGUGUCAUUAGACACAGACUACAAUAAACUAGGAUAUGCUGAUAAGCAGAAGGAGUGAUGUUCCUUUCAAGUAGUCAAUUAAAU [FmnAX 20 Mat Inspired #SwitchBubble #StaticStem #K4Late] | 243 | 120 | 106 | 128 | 97.6
40 | AAGUGUGUGGCGGCCGCCACUAGAAUCCAGUGAUGUUGGAGAUAUCAUGUAAAUGAUAUCCAACAUAGGACCGGGCCAUAUAGAA [Same State - Tryptophan B (Freestyle 10)] | 126 | 98 | 92.4 | 131 | 120
41 | AAGUGUGUGGCGGCCGCCACUAGAAUCCAGUGAUGUUGGAGUUAUCAGAUAAAUGAUAAUCAACAUAGGACCGGGCCAUAUAGAA [Same State - Tryptophan B (Freestyle 5)] | 703 | 689 | 455 | 630 | 425
